In US20250320312A1 (OXITOPE PHARMA B V, published 2025) one finds OD450 data, which are given here for eleven molecules.

Holding throughout (assay): scFv ELISA
Experiment [1] deals with T1, Peptide 8: Biotin-AEAAAKEAAAKEAAAKEAAAKAAA-Tyr-acid (N-terminal biotin; C-terminal acid).
T1 construct: Control peptide without PC
T1 peptide: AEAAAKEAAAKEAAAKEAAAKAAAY
In outline:
(§1)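 Bound scFv was read as OD450 after HRP–anti-V5 detection, TMB development and HCl stop. PPE with BSA was incubated 1 h at RT on BSA-blocked wells coated overnight at 4° C. with peptide, or on streptavidin wells loaded 1 h with biotinylated PC-peptides at 1 μg/mL.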

Experiment [2] has as its target T2, Peptide 4: Biotin-AGGGGSGGGGSGGGGSAAA-Tyr-acid (N-terminal biotin; C-terminal acid).
T2 construct: Control peptide without PC
T2 peptide: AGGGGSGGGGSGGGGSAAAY
In outline: as §1

The target of experiment [3] is BSA (UniProt P02769).
BSA, sequence (P02769 25-607 limits assumed): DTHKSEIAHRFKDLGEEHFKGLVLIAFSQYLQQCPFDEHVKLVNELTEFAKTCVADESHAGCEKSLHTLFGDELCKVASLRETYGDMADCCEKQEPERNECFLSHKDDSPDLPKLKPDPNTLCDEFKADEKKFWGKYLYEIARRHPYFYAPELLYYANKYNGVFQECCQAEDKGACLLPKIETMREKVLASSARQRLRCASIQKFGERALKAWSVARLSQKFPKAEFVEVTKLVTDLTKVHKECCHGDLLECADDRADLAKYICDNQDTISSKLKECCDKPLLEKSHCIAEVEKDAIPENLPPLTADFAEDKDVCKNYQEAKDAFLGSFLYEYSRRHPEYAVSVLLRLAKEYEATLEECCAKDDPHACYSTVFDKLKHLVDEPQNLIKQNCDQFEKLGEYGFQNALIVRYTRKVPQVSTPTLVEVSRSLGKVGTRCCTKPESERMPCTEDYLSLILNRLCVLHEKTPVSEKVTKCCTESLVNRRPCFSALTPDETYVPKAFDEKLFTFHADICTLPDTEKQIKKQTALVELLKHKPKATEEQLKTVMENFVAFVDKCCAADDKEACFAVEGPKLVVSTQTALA
Experiment [4] has as its target Peptide 5: Biotin-…-[Tyr(PC)]-acid.
The target in experiment [5] is Peptide 1: Biotin-…-[Tyr(PC)]-acid.

B1: PcOxP_DB03_C10 (scFv, V domains shown)
VH: EVQLLESGGGLVQPGGSLRLSCAASGFTFSSYYMEWVRQAPGKGLEWVAASRNKANEYTTEYADSVKGRFTISRDNSKNTLYLQMNSLRAEDTAVYYCARDYYGSSYWYFDVWGQGTLVTVSS
VL: DIVMTQSPDSLAVSLGERATINCTASESLYSSKHKVHYLAWYQQKPGQPPKLLIYGAGNRYIGVPDRFSGSGSGTDFTLTISSLQAEDVAVYYCAQFYSYPLTFGGGTKVEIK
notes: scFv in periplasmic extract
Take B1: the OD450 in experiment [1] came to 0.04 OD450; in experiment [2] it was 0.05 OD450; in experiment [3], 0.07 OD450; in experiment [4], 1.1 OD450; in experiment [5], 1.1 OD450.

B2: PcOxP_DB03_E11 (scFv, V domains shown)
VH: EVQLLESGGGLVQPGGSLRLSCAASGFTFSDGYMEWVRQAPGKGLEWVAASRNKANDYTTEYADSVKGRFTISRDNSKNTLYLQMNSLRAEDTAVYYCARDYYGSSYWYFDVWGQGTLVTVSS
VL: DIVMTQSPDSLAVSLGERATINCKSSESLYSSKNKVHYLAWYQQKPGQPPKLLIYGASNRYIGVPDRFSGSGSGTDFTLTISSLQAEDVAVYYCAQFYHYPLTFGGGTKVEIK
notes: scFv in periplasmic extract
Turning to B2, the OD450 in experiment [1] came to 0.04 OD450; in experiment [2], 0.05 OD450; in experiment [3], 0.07 OD450; in experiment [4], 1.58 OD450; in experiment [5] it was 1.4 OD450.

B3: PcOxP_DB03_E03 (scFv, V domains shown)
VH: EVQLLESGGGLVQPGGSLRLSCAASGFTESDFYMEWVRQAPGKGLEWVAASRNKANDYTTEYADSVKGRFTISRDNSKNTLYLQMNSLRAEDTAVYYCARDYYGSSYWYFDVWGQGTLVTVSS
VL: DIVMTQSPDSLAVSLGERATINCKSSQSLLYSKNNVNYLAWYQQKPGQPPKLLIYGESNRYIGVPDRFSGSGSGTDFTLTISSLQAEDVAVYYCAQFYEYPLTFGGGTKVEIK
notes: scFv in periplasmic extract
On to B3, for which the OD450 in experiment [1] was 0.04 OD450; in experiment [2], 0.04 OD450; in experiment [3] it was 0.05 OD450; in experiment [4], 0.79 OD450; in experiment [5] it was 0.27 OD450.

B4: PcOxP_DB03_F02 (scFv, V domains shown)
VH: EVQLLESGGGLVQPGGSLRLSCAASGFTFSSYYMEWVRQAPGKGLEWVAASRNKANDYTTEYADSVKGRFTISRDNSKNTLYLQMNSLRAEDTAVYYCARDYYDSSYWYFDVWGQGTLVTVSS
VL: DIVMTQSPDSLAVSLGERATINCTSSESLLSSKHKVHYLAWYQQKPGQPPKLLIYGASNRYTGVPDRFSGSGSGTDFTLTISSLQAEDVAVYYCAQFYSYPLTFGGGTKVEIK
notes: scFv in periplasmic extract
As for B4, the OD450 in experiment [1] came out at 0.05 OD450; in experiment [2], 0.05 OD450; in experiment [3], 0.07 OD450; in experiment [4], 1.68 OD450; in experiment [5] it was 1.56 OD450.

B5: PcOxP_DB03_D12 (scFv, V domains shown)
VH: EVQLLESGGGLVQPGGSLRLSCAASGFTNSDFYMEWVRQAPGKGLEWVAASRNKANDYTTELADSVKGRFTISRDNSKNTLYLQMNSLRAEDTAVYYCARDYYGSSYWYFDVWGQGTLVTVSS
VL: DIVMTQSPDSLAVSLGERATINCTASESLYSSKHKVHYLAWYQQKPGQPPKLLIYGASNRYIGVPDRFSGSGSGTDFTLTISSLQAEDVAVYYCAQFYSYPLTFGGGTKVEIK
notes: scFv in periplasmic extract
For B5, the OD450 turned out to be 0.04 OD450 in experiment [1]; 0.04 OD450 in experiment [2]; 0.06 OD450 in experiment [3]; 0.3 OD450 in experiment [4]; 0.2 OD450 in experiment [5].

B6: PcOxP_DB03_D10 (scFv, V domains shown)
VH: EVQLLESGGGLVQPGGSLRLSCAASGFTTSDFYMEWVRQAPGKGLEWVAASRNKANGYTTEYADSVKGRFTISRDNSKNTLYLQMNSLRAEDTAVYYCARDYYGSSYWYFDVWGQGTLVTVSS
VL: DIVMTQSPDSLAVSLGERATINCTASESLYSSKHKVHYLAWYQQKPGQPPKLLIYGASGRYIGVPDRFSGSGSGTDFTLTISSLQAEDVAVYYCAQFYSYPLTFGGGTKVEIK
notes: scFv in periplasmic extract
With B6, the OD450 amounted to 0.06 OD450 in experiment [1]; 0.05 OD450 in experiment [2]; 0.06 OD450 in experiment [3]; 1.41 OD450 in experiment [4]; 1.19 OD450 in experiment [5].

B7: PcOxP_DB03_F03 (scFv, V domains shown)
VH: EVQLLESGGGLVQPGGSLRLSCAASGFTFSDQYMEWVRQAPGKGLEWVAASRNKNNDYTTEYADSVKGRFTISRDNSKNTLYLQMNSLRAEDTAVYYCARDYYGASYWYFDVWGQGTLVTVSS
VL: DIVMTQSPDSLAVSLGERATINCTASQSVYSSKHKKHYLAWYQQKPGQPPKLLIYGANNRYIGVPDRFSGSGSGTDFTLTISSLQAEDVAVYYCGQFYSYPLTFGGGTKVEIK
notes: scFv in periplasmic extract
On to B7, for which the OD450 in experiment [1] amounted to 0.05 OD450; in experiment [2], 0.05 OD450; in experiment [3] it was 0.08 OD450; in experiment [4] it was 1.93 OD450; in experiment [5], 1.13 OD450.

B8: PcOxP_DB03_E04 (scFv, V domains shown)
VH: EVQLLESGGGLVQPGGSLRLSCAASGFTFSSYYMEWVRQAPGKGLEWVAASRNKANDYTTEYADSVKGRFTISRDNSKNTLYLQMNSLRAEDTAVYYCARDYYGSSYWYFDVWGQGTLVTVSS
VL: DIVMTQSPDSLAVSLGERATINCTASESLYSSKHKVHYLAWYQQKPGQPPKLLIYGASNRYLGVPDRFSGSGSGTDFTLTISSLQAEDVAVYYCAQFYSYPLTFGGGTKVEIK
notes: scFv in periplasmic extract
In the case of B8, the OD450 in experiment [1] was determined as 0.04 OD450; in experiment [2] it was 0.06 OD450; in experiment [3] it was 0.08 OD450; in experiment [4] it was 1.2 OD450; in experiment [5], 0.96 OD450.

B9: PcOxP_DB03_D03 (scFv, V domains shown)
VH: EVQLLESGGGLVQPGGSLRLSCAASGFTFSDYYMEWVRQAPGKGLEWVAASRNKANDYTTEYADSVKGRFTISRDNSKNTLYLQMNSLRAEDTAVYYCARDYYFSSYWYFDVWGQGTLVTVSS
VL: DIVMTQSPDSLAVSLGERATINCTASESLYSSKHKVHYLAWYQQKPGQPPKLLIYGASNRYIGVPDRFSGSGSGTDFTLTISSLQAEDVAVYYCAQFYSYPLTFGGGTKVEIK
notes: scFv in periplasmic extract
Turning to B9, the OD450 in experiment [1] was 0.04 OD450; in experiment [2] it was 0.04 OD450; in experiment [3], 0.1 OD450; in experiment [4], 1.11 OD450; in experiment [5] it was 0.73 OD450.

B10: PcOxP_DB03_D02 (scFv, V domains shown)
VH: EVQLLESGGGLVQPGGSLRLSCAASGFTFSDYYMEWVRQAPGKGLEWVAASRNKANDYTTEYADSVKGRFTISRDNSKNTLYLQMNSLRAEDTAVYYCARDYYGSSYWYFDVWGQGTLVTVSS
VL: DIVMTQSPDSLAVSLGERATINCTASESLYSSKHKVHYLAWYQQKPGQPPKLLIYGATNRYIGVPDRFSGSGSGTDFTLTISSLQAEDVAVYYCAEFYSYPLTFGGGTKVEIK
notes: scFv in periplasmic extract
Take B10: the OD450 in experiment [1] came to 0.04 OD450; in experiment [2], 0.05 OD450; in experiment [3], 0.09 OD450; in experiment [4], 1.37 OD450; in experiment [5] it was 0.67 OD450.

B11: PcOxP_DB03_E12 (scFv, V domains shown)
VH: EVQLLESGGGLVQPGGSLRLSCAASGETFSDFYMEWVRQAPGKGLEWVAASRNKWNDYTTEYADSVKGRFTISRDNSKNTLYLQMNSLRAEDTAVYYCARDYYGSSYWYFDVWGQGTLVTVSS
VL: DIVMTQSPDSLAVSLGERATINCTASESLYSSKHKVNYLAWYQQKPGQPPKLLIYGASNRYIGVPDRFSGSGSGTDFTLTISSLQAEDVAVYYCAQFYSYPLTFGGGTKVEIK
notes: scFv in periplasmic extract
B11: the OD450 in experiment [1] stood at 0.06 OD450; in experiment [2] it was 0.06 OD450; in experiment [3], 0.06 OD450; in experiment [4] it was 0.88 OD450; in experiment [5], 0.57 OD450.
